Source: patent US20090031441A1 (NATIONAL UNIVERSITY CORPORATION NAGOYA UNIVERSITY, published 2009)

T1: GAI (Arabidopsis DELLA protein), yeast two-hybrid prey in pGADT7 AD vector (Arabidopsis, UniProt Q9LQT8 1-533)
T1 construct: also called AtDELLA
T1 sequence (looked up): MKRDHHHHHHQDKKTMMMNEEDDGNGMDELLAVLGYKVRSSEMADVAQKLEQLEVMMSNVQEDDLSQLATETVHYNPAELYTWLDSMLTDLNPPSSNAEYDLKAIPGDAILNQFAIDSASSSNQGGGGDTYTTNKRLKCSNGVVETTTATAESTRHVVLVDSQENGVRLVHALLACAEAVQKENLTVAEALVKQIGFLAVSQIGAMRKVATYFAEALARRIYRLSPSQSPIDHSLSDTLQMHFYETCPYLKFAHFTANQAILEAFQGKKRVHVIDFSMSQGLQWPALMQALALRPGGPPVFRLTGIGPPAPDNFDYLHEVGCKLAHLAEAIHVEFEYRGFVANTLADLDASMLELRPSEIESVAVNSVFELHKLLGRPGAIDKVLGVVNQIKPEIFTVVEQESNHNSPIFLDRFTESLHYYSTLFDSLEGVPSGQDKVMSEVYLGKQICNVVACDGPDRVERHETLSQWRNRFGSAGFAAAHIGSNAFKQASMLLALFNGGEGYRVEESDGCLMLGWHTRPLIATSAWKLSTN

T2: RGL2 (Arabidopsis DELLA protein), yeast two-hybrid prey in pGADT7 AD vector (Arabidopsis, UniProt Q8GXW1 1-547)
T2 construct: also called AtDELLA
T2 sequence (looked up): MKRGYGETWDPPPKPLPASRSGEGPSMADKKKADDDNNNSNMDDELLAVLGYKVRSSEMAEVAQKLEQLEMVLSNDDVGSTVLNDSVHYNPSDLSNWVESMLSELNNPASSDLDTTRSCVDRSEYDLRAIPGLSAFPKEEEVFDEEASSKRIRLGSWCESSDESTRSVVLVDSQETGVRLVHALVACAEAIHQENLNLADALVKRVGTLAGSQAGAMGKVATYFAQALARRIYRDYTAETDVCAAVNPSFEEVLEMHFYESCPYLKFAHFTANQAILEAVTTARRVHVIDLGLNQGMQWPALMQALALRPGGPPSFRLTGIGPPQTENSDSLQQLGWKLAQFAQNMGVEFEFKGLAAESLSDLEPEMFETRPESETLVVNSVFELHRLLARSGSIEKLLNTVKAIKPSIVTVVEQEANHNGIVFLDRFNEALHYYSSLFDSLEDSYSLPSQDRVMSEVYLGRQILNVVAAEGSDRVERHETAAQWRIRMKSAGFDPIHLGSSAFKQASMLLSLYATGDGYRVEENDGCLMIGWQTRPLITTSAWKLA


Assays:
[1] = target: T1, GAI (Arabidopsis DELLA protein), yeast …; experiment: yeast two-hybrid, AtGID1 bait and AtDELLA prey, 10^-5 M GA4 in medium; colony growth (Assay A) and beta-galactosidase activity (Assay B)
Description: Panel A) depicts AtGID1-AtDELLA interaction in the presence of GA in two types of yeast hybrid (Y2H) assays. Each AtGID1 was used as a bait while AtDELLA was a prey. GA₄ (10⁻⁵ M) was added to the medium. The bars indicates β-galactosidase activity when o-nitrophenol-β-D-galactopyranoside was used as a substrate (Assay B). The growth of each transformant in the defined medium for 2 days (Assay A) is shown beneath of each bar graph. The experiment was carried out in quadruplicate. The SD value shown in the figure was determined from three measurements. Panel B) depicts the dose response in AtGID1-RGA interaction in Assay B of Y2H. GA₄ (10⁻⁵ to 10⁻⁹ M) was added to the medium. The experiment was conducted in duplicates. The SD value shown in the figure was determined from three measurements. Panel C) depicts the results of an evaluation of the in vitro GA-binding potency of AtGID1 using AtDELLA. Left panel, 15 minutes after mixing AtGID1c (C), tritiated GA, with an excess amount of non-labeled GA (+) or without non-labeled GA (−). GAI (G) or RGA (R) was added, and then the GA-binding activity in each reaction mixture was measured according to the standard method. Recombinant protein originating from the vector (v) was used as a negative control. The experiment was carried out in duplicates. The SD value was determined from three measurements. Right panel, a profile of Western blotting for recombinant AtDELLA using an antibody to His tag. G, GAI; R, RGA; v, vector; M, molecular weight marker.
Arabidopsis has five DELLA proteins (RGA, GAI, RGL1, RGL2, and RGL3; collectively designated AtDELLA; Fleet, C. M., and Sun, T.-P. (2005) Curr. Opin. Plant Biol., 8, 77-85; Dill, A., and Sun, T. (2001) Genetics, 159, 777-785); therefore, there are 15 possible combinations of GID1/DELLA proteins. To verify the positive interactions between AtGID1-AtDELLA, two experiments were conducted using the yeast two hybrid (Y2H) system. […] In the second experiment (Assay B), β-galactosidase activity was measured, as reporter gene product of AtGID1-AtDELLA interactions. […]

[2] = target: T2, RGL2 (Arabidopsis DELLA protein), yeast …; experiment: yeast two-hybrid system
Description: Arabidopsis has five DELLA proteins (RGA, GAI, RGL1, RGL2, and RGL3; collectively designated AtDELLA; Fleet, C. M., and Sun, T.-P. (2005) Curr. Opin. Plant Biol., 8, 77-85; Dill, A., and Sun, T. (2001) Genetics, 159, 777-785); therefore, there are 15 possible combinations of GID1/DELLA proteins. To verify the positive interactions between AtGID1-AtDELLA, two experiments were conducted using the yeast two hybrid (Y2H) system. In the first experiment (Assay A), a viable colony assay using a defined medium in which only positive clones would survive was carried out. In the second experiment (Assay B), β-galactosidase activity was measured, as reporter gene product of AtGID1-AtDELLA interactions.
BD Matchmaker Two-hybrid System 3 (Clontech, Palo Alto, Calif., USA; now part of Takara Bio) was used in the Y2H experiments. After confirming the PCR products of the AtGID1 genes by sequencing, PCR products were cloned into pGBKT7 DNA-BD shuttle vector to construct bait plasmids. Likewise, the entire coding region of each AtDELLA gene (GAI including EcoRI and XhoI sites; RGA including BamHI and XhoI sites; RGL1 including SmaI and SacI sites; RGL2 including SmaI and ClaI sites; RGL3 including SmaI and XhoI sites on the ends) was cloned into pGADT7 AD vector. The S. cerevisiae AH109 (MATa) strain or Y187 (MATα) strain was used, and DNA-BD and AD vector cassettes were used as negative controls. The details of the method used for the yeast assay are as described in the manufacturer's instructions (Yeast Protocols Handbook #PT3024-1; http://www.clontech.com/). Experiments were carried out four times independently. Similar results were obtained each time.

binding result [1] | binding result [2] | Binder
binds | binds | AtGID1a (At3g05120), yeast two-hybrid bait in pGBKT7 DNA-BD vector (receptor, not shown: small tags and cut ends, Bait fusion for the Y2H assays (BD Matchmaker Two-hybrid System 3); also called Arabidopsis GID1) MAASDEVNLIESRTVVPLNTWVLISNFKVAYNILRRPDGTFNRHLAEYLDRKVTANANPVDGVFSFDVLIDRRINLLSRVYRPAYADQEQPPSILDLEKPVDGDIVPVILFFHGGSFAHSSANSAIYDTLCRRLVGLCKCVVVSVNYRRAPENPYPCAYDDGWIALNWVNSRSWLKSKKDSKVHIFLAGDSSGGNIAHNVALRAGESGIDVLGNILLNPMFGGNERTESEKSLDGKYFVTVRDRDWYWKAFLPEGEDREHPACNPFSPRGKSLEGVSFPKSLVVVAGLDLIRDWQLAYAEGLKKAGQEVKLMHLEKATVGFYLLPNNNHFHNVMDEISAFVNAEC
 | binds | AtGID1b (At3g63010), yeast two-hybrid bait in pGBKT7 DNA-BD vector (receptor, not shown: small tags and cut ends, Bait fusion for the Y2H assays; also called Arabidopsis GID1) MAGGNEVNLNECKRIVPLNTWVLISNFKLAYKVLRRPDGSFNRDLAEFLDRKVPANSFPLDGVFSFDHVDSTTNLLTRIYQPASLLHQTRHGTLELTKPLSTTEIVPVLIFFHGGSFTHSSANSAIYDTFCRRLVTICGVVVVSVDYRRSPEHRYPCAYDDGWNALNWVKSRVWLQSGKDSNVYVYLAGDSSGGNIAHNVAVRATNEGVKVLGNILLHPMFGGQERTQSEKTLDGKYFVTIQDRDWYWRAYLPEGEDRDHPACNPFGPRGQSLKGVNFPKSLVVVAGLDLVQDWQLAYVDGLKKTGLEVNLLYLKQATIGFYFLPNNDHFHCLMEELNKFVHSIEDSQSKSSPVLLTP
